Test results: publication PMC2716513

Key:
ADAMTS13 P475S mutant = ADAMTS13 P475S mutant (UniProt Q76LX8)
[1] = molecular target: ADAMTS13 (wild-type recombinant ADAMTS13 with a carboxy-terminal V5 tag) (UniProt Q76LX8)
[2] = molecular target: ADAMTS13 (wild-type recombinant ADAMTS13 with a carboxy-terminal V5 tag) (UniProt Q76LX8); remark: listed apart in the source

fluorescence intensity of the mAb Wh-2-11-1 on the P475S mutant ADAMTS13 (flow cytometry) on addition of VWF, fold increase (data not given) (ADAMTS13 P475S mutant): 1.9 fold | fluorescence intensity of the mAb Wh-2-11-1 on wild-type ADAMTS13 (flow cytometry) on addition of VWF, fold increase (data not given) [1]: 3.5 fold | reactivity of the mAb Wh2-11-1 to intracellular ADAMTS13 (flow cytometry, permeabilized HEK293 cells) after incubation with VWF at 37°C, fold increase [2]: > 10 fold
Substance: von Willebrand Factor (VWF) (from UniProt P04275 764-2813) (natural protein)
